Experimental data as given in US20250109203A1.
Substitutions are numbered along the chain they refer to.

B1: hu1D7v3 VHH-hIgG1 Fc-NNT (monomeric) (VHH)
VHH: EVQLLESGGGEVQPGGSLRLSCVASGGKISQYRMGWYRQAPGKGLEWVAHISNTGDAAEYVDSVKGRFTISRDSTKNAVYLQMSSLRAEDTAVYKCNSVEDILAWGQGTLVTVKP
B2: hu1D7v6 VHH-hIgG1 Fc-NNT (monomeric) (VHH)
VHH: B1 VHH with G26R, I29F
B3: hu1D7v79 VHH-hIgG1 Fc-NNT (monomeric) (VHH)
VHH: B1 VHH with G26R, G44E, L45R, W47L, G66D, V79L, S98L, K114R
B4: 1D7v112 VHH-hIgG1 Fc-NNT (monomeric) (VHH)
VHH: B1 VHH with G26R, G44E, L45R, W47L, S63V, G66D, V79L, K114R
B5: hu1D7v93 VHH-hIgG1 Fc-NNT (monomeric) (VHH)
VHH: B1 VHH with G26R, G44E, L45R, W47L, G66D, V79L, S98Q, K114R
B6: hu1D7v90 VHH-hIgG1 Fc-NNT (monomeric) (VHH)
VHH: B1 VHH with G26R, G44E, L45R, W47L, G66D, V79L, N97S, S98G, K114R
B7: hu1D7v80 VHH-hIgG1 Fc-NNT (monomeric) (VHH)
VHH: B1 VHH with G26R, G44E, L45R, W47L, G66D, V79L, S98V, K114R
B8: hu1D7v88 VHH-hIgG1 Fc-NNT (monomeric) (VHH)
VHH: B1 VHH with G26R, G44E, L45R, W47L, D62Q, S63G, G66D, V79L, K114R
B9: hu1D7v60 VHH-hIgG1 Fc-NNT (monomeric) (VHH)
VHH: B1 VHH with G26R, G44E, L45R, W47L, G66D, S74N, T75A, V79L, K114R
B10: hu1D7v89 VHH-hIgG1 Fc-NNT (monomeric) (VHH)
VHH: B1 VHH with G26R, G44E, L45R, W47L, G66D, V79L, N97Q, S98G, K114R
B11: hu1D7v57 VHH-hIgG1 Fc-NNT (monomeric) (VHH)
VHH: B1 VHH with G26R, G44E, L45R, W47L, V79L, K114R
B12: hu1D7v71 VHH-hIgG1 Fc-NNT (monomeric) (VHH)
VHH: B1 VHH with G26R, G44E, L45R, W47L, S63V, G66D, V79L, K114R
B13: hu1D7v59 VHH-hIgG1 Fc-NNT (monomeric) (VHH)
VHH: B1 VHH with G26R, G44E, L45R, W47L, D62A, S63P, G66D, V79L, K114R
B14: hu1D7v81 VHH-hIgG1 Fc-NNT (monomeric) (VHH)
VHH: B1 VHH with G26R, G44E, L45R, W47L, G66D, V79L, N97A, K114R
B15: 1D7v113 VHH-hIgG1 Fc-NNT (monomeric) (VHH)
VHH: B1 VHH with G26R, G44E, L45R, W47L, S63L, G66D, V79L, K114R
B16: hu1D7v72 VHH-hIgG1 Fc-NNT (monomeric) (VHH)
VHH: B1 VHH with G26R, G44E, L45R, W47L, S63L, G66D, V79L, K114R
B17: hu1D7v38 VHH-hIgG1 Fc-NNT (monomeric) (VHH)
VHH: B1 VHH with G26R, G44E, S98V
B18: hu1D7v67 VHH-hIgG1 Fc-NNT (monomeric) (VHH)
VHH: B1 VHH with G26R, G44E, L45R, W47L, G66D, V79L, N97Q, K114R
B19: hu1D7v74 VHH-hIgG1 Fc-NNT (monomeric) (VHH)
VHH: B1 VHH with G26R, G44E, L45R, W47L, D62A, G66D, V79L, K114R
B20: hu1D7v75 VHH-hIgG1 Fc-NNT (monomeric) (VHH)
VHH: B1 VHH with G26R, G44E, L45R, W47L, D62G, G66D, V79L, K114R
B21: hu1D7v73 VHH-hIgG1 Fc-NNT (monomeric) (VHH)
VHH: B1 VHH with G26R, G44E, L45R, W47L, S63I, G66D, V79L, K114R
B22: 1D7v124 VHH-hIgG1 Fc-NNT (monomeric) (VHH)
VHH: B1 VHH with G26R, G44E, L45R, W47L, S63G, G66D, V79L, K114R
B23: hu1D7v65 VHH-hIgG1 Fc-NNT (monomeric) (VHH)
VHH: B1 VHH with G26R, G44E, L45R, W47L, S63A, G66D, V79L, K114R
B24: hu1D7v83 VHH-hIgG1 Fc-NNT (monomeric) (VHH)
VHH: B1 VHH with G26R, G44E, L45R, W47L, S63G, G66D, V79L, K114R
B25: hu1D7v10 VHH-hIgG1 Fc-NNT (monomeric) (VHH)
VHH: B1 VHH with G26R, A49S
B26: hu1D7v78 VHH-hIgG1 Fc-NNT (monomeric) (VHH)
VHH: B1 VHH with G26R, G44E, L45R, W47L, G66D, V79L, S98A, K114R
B27: hu1D7v102 VHH-hIgG1 Fc-NNT (monomeric) (VHH)
VHH: B1 VHH with G26R, G44E, G66D, V79L, S98T, K114R
B28: hu1D7v98 VHH-hIgG1 Fc-NNT (monomeric) (VHH)
VHH: B1 VHH with G26R, G44E, L45R, W47L, D62L, G66D, V79L, K114R
B29: hu1D7v8 VHH-hIgG1 Fc-NNT (monomeric) (VHH)
VHH: B1 VHH with G26R, R33A
B30: hu1D7v70 VHH-hIgG1 Fc-NNT (monomeric) (VHH)
VHH: B1 VHH with G26R, G44E, L45R, W47L, G66D, V79L, N97E, K114R
B31: hu1D7v4 VHH-hIgG1 Fc-NNT (monomeric) (VHH)
VHH: B1 VHH with G26R, G27F
B32: hu1D7v92 VHH-hIgG1 Fc-NNT (monomeric) (VHH)
VHH: B1 VHH with G26R, G44E, L45R, W47L, G66D, V79L, N97Q, S98N, K114R
B33: hu1D7v66 VHH-hIgG1 Fc-NNT (monomeric) (VHH)
VHH: B1 VHH with G26R, G44E, L45R, W47L, S63T, G66D, V79L, K114R
B34: hu1D7v58 VHH-hIgG1 Fc-NNT (monomeric) (VHH)
VHH: B1 VHH with G26R, G44E, L45R, W47L, G66D, V79L, K114R
B35: hu1D7v61 VHH-hIgG1 Fc-NNT (monomeric) (VHH)
VHH: B1 VHH with G26R, G44E, L45R, W47L, G66D, V79L, S98T, K114R
B36: hu1D7v37 VHH-hIgG1 Fc-NNT (monomeric) (VHH)
VHH: B1 VHH with G26R, G44E, S98T
B37: hu1D7v91 VHH-hIgG1 Fc-NNT (monomeric) (VHH)
VHH: B1 VHH with G26R, G44E, L45R, W47L, G66D, V79L, N97G, S98G, K114R
B38: hu1D7v94 VHH-hIgG1 Fc-NNT (monomeric) (VHH)
VHH: B1 VHH with G26R, G44E, L45R, W47L, G66D, V79L, N97S, S98N, K114R
B39: hu1D7v96 VHH-hIgG1 Fc-NNT (monomeric) (VHH)
VHH: B1 VHH with G26R, G44E, L45R, W47L, D62Y, G66D, V79L, K114R
B40: 1D7v125 VHH-hIgG1 Fc-NNT (monomeric) (VHH)
VHH: B1 VHH with G26R, G44E, L45R, W47L, D62E, S63G, G66D, V79L, K114R
B41: hu1D7v87 VHH-hIgG1 Fc-NNT (monomeric) (VHH)
VHH: B1 VHH with G26R, G44E, L45R, W47L, D62Q, G66D, V79L, K114R
B42: hu1D7v84 VHH-hIgG1 Fc-NNT (monomeric) (VHH)
VHH: B1 VHH with G26R, G44E, L45R, W47L, D62E, S63G, G66D, V79L, K114R
B43: hu1D7v101 VHH-hIgG1 Fc-NNT (monomeric) (VHH)
VHH: B1 VHH with G26R, G44E, L45R, W47L, G66D, V79L, N97A, S98A, K114R
B44: hu1D7v100 VHH-hIgG1 Fc-NNT (monomeric) (VHH)
VHH: B1 VHH with G26R, G44E, L45R, W47L, G66D, V79L, K95Y, K114R
B45: hu1D7v69 VHH-hIgG1 Fc-NNT (monomeric) (VHH)
VHH: B1 VHH with G26R, G44E, L45R, W47L, G66D, V79L, N97T, K114R
B46: hu1D7v76 VHH-hIgG1 Fc-NNT (monomeric) (VHH)
VHH: B1 VHH with G26R, G44E, L45R, W47L, D62V, G66D, V79L, K114R
B47: 1D7v139 VHH-hIgG1 Fc-NNT (monomeric) (VHH)
VHH: B1 VHH with G26R, G44E, L45R, W47L, D62L, G66D, V79L, K114R
B48: hu1D7v39 VHH-hIgG1 Fc-NNT (monomeric) (VHH)
VHH: B1 VHH with G26R, G44E, K114R
B49: hu1D7v63 VHH-hIgG1 Fc-NNT (monomeric) (VHH)
VHH: EVQLLESGGGEVQPGGSLRLSCAASRGKISQYRMGWYRQAPGKERELVAHISNTGDAAEYVAPVKDRFTISRDNAKNALYLQMSSLRAEDTAVYKCNTVEDILAWGQGTLVTVRP
B50: hu1D7v158-2 VHH-hIgG1 Fc-NNT (monomeric) (VHH)
VHH: B49 VHH with A23V, E44Q, A49S, D66G, S84N, R114E
B51: hu1D7v158-1 VHH-hIgG1 Fc-NNT (monomeric) (VHH)
VHH: B49 VHH with A23V, Y37V, E44Q, D66G, S84N, R114E
B52: hu1D7v158-4 VHH-hIgG1 Fc-NNT (monomeric) (VHH)
VHH: B49 VHH with A23V, E44Q, V61A, D66G, S84N, R114E
B53: hu1D7v158-3 VHH-hIgG1 Fc-NNT (monomeric) (VHH)
VHH: B49 VHH with A23V, E44Q, H50A, D66G, S84N, R114E
B54: hu1D7v158-6 VHH-hIgG1 Fc-NNT (monomeric) (VHH)
VHH: B49 VHH with A23V, E44Q, P63S, D66G, S84N, R114E
B55: hu1D7v158-8 VHH-hIgG1 Fc-NNT (monomeric) (VHH)
VHH: B49 VHH with A23V, E44Q, V61A, A62E, P63S, D66G, S84N, R114E
B56: hu1D7v158-10 VHH-hIgG1 Fc-NNT (monomeric) (VHH)
VHH: B49 VHH with A23V, E44Q, D66G, S84N, K95Y, R114E
B57: hu1D7v158-9 VHH-hIgG1 Fc-NNT (monomeric) (VHH)
VHH: B49 VHH with A23V, L47F, D66G, S84N, R114E
B58: hu1D7v158-5 VHH-hIgG1 Fc-NNT (monomeric) (VHH)
VHH: B49 VHH with A23V, E44Q, A62E, D66G, S84N, R114E
B59: hu1D7v158-7 VHH-hIgG1 Fc-NNT (monomeric) (VHH)
VHH: B49 VHH with A23V, E44Q, D66G, A78T, S84N, R114E

The binders below were run against human γδ TCR (Vγ9Vδ2) on human Vδ2+ γδ T cells (human) (UniProt A0JD36) (assay: flow cytometry on expanded human Vδ2+ γδ T cells, nonlinear fit).

Row | Kd [nM] | Binder
1 | 51.1 | B1
2 | 35.1 | B2
3 | 497 | B3
4 | 226 | B4
5 | 1090 | B5
6 | 95.6 | B6
7 | 646 | B7
8 | 61.5 | B8
9 | 9.67 | B9
10 | 1950 | B10
11 | 10.5 | B11
12 | 135 | B12
13 | 23.8 | B13
14 | 843 | B14
15 | 192 | B15
16 | 182 | B16
17 | 20200 | B17
18 | 1740 | B18
19 | 60.4 | B19
20 | 118 | B20

Row | Kd [nM] | Binder
21 | 180 | B21
22 | 72.2 | B22
23 | 347 | B23
24 | 36.3 | B24
25 | 60.9 | B25
26 | 481 | B26
27 | 18 | B27
28 | 114 | B28
29 | 7870 | B29
30 | 441 | B30
31 | 8860 | B31
32 | 104 | B32
33 | 93.3 | B33
34 | 8.07 | B34
35 | 41.3 | B35
36 | 17.4 | B36
37 | 154 | B37
38 | 752 | B38
39 | 191 | B39
40 | 59 | B40

Row | Kd [nM] | Binder
41 | 44.9 | B41
42 | 43.6 | B42
43 | 270 | B43
44 | 61.9 | B44
45 | 1010 | B45
46 | 125 | B46
47 | 341 | B47
48 | 7.99 | B48
49 | 14.7 | B49
50 | 3.28 | B50
51 | 205 | B51
52 | 3.13 | B52
53 | 28 | B53
54 | 2.82 | B54
55 | 2.93 | B55
56 | 4.97 | B56
57 | 20 | B57
58 | 2.82 | B58
59 | 3.47 | B59

These binders were tested against human γδ TCR (Vγ9Vδ2) on human Vδ2+ γδ T cells (human) (UniProt A0JD36) (assay: flow cytometry, monomeric VHH-hIgG1 Fc fusion on expanded human Vδ2+ γδ T cells, anti-human Fc A647, MFI).

Row | EC50 (read off the curve) [nM] | Binder
60 | 20 | B1
